Source: publication PMC9788986, “Dynamic chromatin accessibility deploys heterotypic cis/trans-acting factors driving stomatal cell-fate commitment” (Nature Plants, 2022)

T1: MUTE-SCRM heterodimer (A. thaliana, UniProt Q9M8K6 1-202; Q9LSE2 1-494)
T1 construct: MUTE, Arabidopsis thaliana, residues 1-202, in pET28a; also called SCRM-MUTE heterodimer; source: E. coli BL21, purified (MUTE: Ni-NTA, gel filtration; SCRM: glutathione resin, thrombin, gel filtration); not shown: GST, N-terminal, cleaved
T1 sequence (looked up) 1: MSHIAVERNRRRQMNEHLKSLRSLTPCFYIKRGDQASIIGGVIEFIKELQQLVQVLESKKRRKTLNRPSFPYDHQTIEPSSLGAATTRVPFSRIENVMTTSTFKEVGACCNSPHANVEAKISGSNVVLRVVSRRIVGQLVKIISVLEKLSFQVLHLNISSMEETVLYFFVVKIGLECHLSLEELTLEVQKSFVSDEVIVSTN
T1 sequence (looked up) 2: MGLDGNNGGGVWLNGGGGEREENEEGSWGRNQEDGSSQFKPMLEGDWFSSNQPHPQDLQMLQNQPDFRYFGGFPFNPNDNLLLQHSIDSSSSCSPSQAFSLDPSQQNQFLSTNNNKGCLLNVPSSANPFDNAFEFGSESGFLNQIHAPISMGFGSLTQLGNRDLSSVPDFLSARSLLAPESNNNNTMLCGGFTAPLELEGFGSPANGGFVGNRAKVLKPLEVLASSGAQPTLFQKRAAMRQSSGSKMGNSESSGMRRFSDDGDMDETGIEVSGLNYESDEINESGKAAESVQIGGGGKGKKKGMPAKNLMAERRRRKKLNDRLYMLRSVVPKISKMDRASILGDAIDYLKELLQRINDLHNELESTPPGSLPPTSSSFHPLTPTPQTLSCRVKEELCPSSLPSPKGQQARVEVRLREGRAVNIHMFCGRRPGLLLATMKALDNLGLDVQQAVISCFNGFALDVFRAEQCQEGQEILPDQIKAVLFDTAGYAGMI

T2: His tagged BPC2 (1-279) (A. thaliana, UniProt Q9LDE2 1-279)
T2 chain: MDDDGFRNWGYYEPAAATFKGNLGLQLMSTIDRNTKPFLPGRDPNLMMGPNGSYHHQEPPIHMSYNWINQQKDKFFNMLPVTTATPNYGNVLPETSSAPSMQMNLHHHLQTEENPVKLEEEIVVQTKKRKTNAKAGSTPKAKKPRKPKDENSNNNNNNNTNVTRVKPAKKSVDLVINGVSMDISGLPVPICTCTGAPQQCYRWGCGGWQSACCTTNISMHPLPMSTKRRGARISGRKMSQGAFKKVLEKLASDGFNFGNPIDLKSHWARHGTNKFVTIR

T3: His tagged BPC1 (1-283) (A. thaliana, UniProt Q9SKD0 1-283)
T3 chain: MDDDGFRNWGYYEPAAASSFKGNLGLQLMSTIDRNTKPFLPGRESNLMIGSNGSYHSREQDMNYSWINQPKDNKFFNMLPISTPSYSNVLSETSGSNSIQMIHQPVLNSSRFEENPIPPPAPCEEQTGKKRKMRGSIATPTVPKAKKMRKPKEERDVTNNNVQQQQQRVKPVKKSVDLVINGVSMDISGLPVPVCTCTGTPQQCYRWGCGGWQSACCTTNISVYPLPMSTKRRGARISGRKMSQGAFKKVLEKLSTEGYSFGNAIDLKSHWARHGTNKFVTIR


Legend:
MUTE-SCRM heterodimer = molecular target: T1, MUTE-SCRM heterodimer; assay: BLI; Octet Red96; Ni-NTA probes loaded with 500 nM His tagged BPC1 or BPC2; heterodimer as analyte at seven concentrations (200 to 3.12 nM by the methods); 30 °C; 1× PBS with 0.02% Tween 20; 1:1 model, Kd by steady-state analysis; details: both partners purified
His tagged BPC2 (1-279) = molecular target: T2, His tagged BPC2 (1-279); assay: BLI
His tagged BPC1 (1-283) = molecular target: T3, His tagged BPC1 (1-283); assay: BLI

Kd (MUTE-SCRM heterodimer) [nM]	Kd (His tagged BPC2 (1-279)) [nM]	Kd (His tagged BPC1 (1-283)) [nM]	Binder
4.8 ± 1.6			His tagged BPC1 (1-283) (natural protein, A. thaliana, UniProt Q9SKD0 1-283, looked up, BPC1 (BASIC … 1), Arabidopsis thaliana, residues 1-283, in pET28a; source: E. coli BL21, purified (Ni-NTA, gel filtration on Superdex-200); not shown: His tag, N-terminal, kept) MDDDGFRNWGYYEPAAASSFKGNLGLQLMSTIDRNTKPFLPGRESNLMIGSNGSYHSREQDMNYSWINQPKDNKFFNMLPISTPSYSNVLSETSGSNSIQMIHQPVLNSSRFEENPIPPPAPCEEQTGKKRKMRGSIATPTVPKAKKMRKPKEERDVTNNNVQQQQQRVKPVKKSVDLVINGVSMDISGLPVPVCTCTGTPQQCYRWGCGGWQSACCTTNISVYPLPMSTKRRGARISGRKMSQGAFKKVLEKLSTEGYSFGNAIDLKSHWARHGTNKFVTIR
11 ± 1.6			His tagged BPC2 (1-279) (natural protein, A. thaliana, UniProt Q9LDE2 1-279, looked up, BPC2 (BASIC … 2), Arabidopsis thaliana, residues 1-279, in pET28a; source: E. coli BL21, purified (Ni-NTA, gel filtration on Superdex-200); not shown: His tag, N-terminal, kept) MDDDGFRNWGYYEPAAATFKGNLGLQLMSTIDRNTKPFLPGRDPNLMMGPNGSYHHQEPPIHMSYNWINQQKDKFFNMLPVTTATPNYGNVLPETSSAPSMQMNLHHHLQTEENPVKLEEEIVVQTKKRKTNAKAGSTPKAKKPRKPKDENSNNNNNNNTNVTRVKPAKKSVDLVINGVSMDISGLPVPICTCTGAPQQCYRWGCGGWQSACCTTNISMHPLPMSTKRRGARISGRKMSQGAFKKVLEKLASDGFNFGNPIDLKSHWARHGTNKFVTIR
	227	126	SPCH-SCRM heterodimer (complex) chain 1: MQEIIPDFLEECEFVDTSLAGDDLFAILESLEGAGEISPTAASTPKDGTTSSKELVKDQDYENSSPKRKKQRLETRKEEDEEEEDGDGEAEEDNKQDGQQKMSHVTVERNRRKQMNEHLTVLRSLMPCFYVKRGDQASIIGGVVEYISELQQVLQSLEAKKQRKTYAEVLSPRVVPSPRPSPPVLSPRKPPLSPRINHHQIHHHLLLPPISPRTPQPTSPYRAIPPQLPLIPQPPLRSYSSLASCSSLGDPPPYSPASSSSSPSVSSNHESSVINELVANSKSALADVEVKFSGANVLLKTVSHKIPGQVMKIIAALEDLALEILQVNINTVDETMLNSFTIKIGIECQLSAEELAQQIQQTFC chain 2: MGLDGNNGGGVWLNGGGGEREENEEGSWGRNQEDGSSQFKPMLEGDWFSSNQPHPQDLQMLQNQPDFRYFGGFPFNPNDNLLLQHSIDSSSSCSPSQAFSLDPSQQNQFLSTNNNKGCLLNVPSSANPFDNAFEFGSESGFLNQIHAPISMGFGSLTQLGNRDLSSVPDFLSARSLLAPESNNNNTMLCGGFTAPLELEGFGSPANGGFVGNRAKVLKPLEVLASSGAQPTLFQKRAAMRQSSGSKMGNSESSGMRRFSDDGDMDETGIEVSGLNYESDEINESGKAAESVQIGGGGKGKKKGMPAKNLMAERRRRKKLNDRLYMLRSVVPKISKMDRASILGDAIDYLKELLQRINDLHNELESTPPGSLPPTSSSFHPLTPTPQTLSCRVKEELCPSSLPSPKGQQARVEVRLREGRAVNIHMFCGRRPGLLLATMKALDNLGLDVQQAVISCFNGFALDVFRAEQCQEGQEILPDQIKAVLFDTAGYAGMI
